Experimental data published in PMC11618752 (2024).

Biological target: XPO1 protein, recombinant (UniProt O14980 1-1071)
Test: ITC

Chain of XPO1 protein, recombinant (O14980 whole entry): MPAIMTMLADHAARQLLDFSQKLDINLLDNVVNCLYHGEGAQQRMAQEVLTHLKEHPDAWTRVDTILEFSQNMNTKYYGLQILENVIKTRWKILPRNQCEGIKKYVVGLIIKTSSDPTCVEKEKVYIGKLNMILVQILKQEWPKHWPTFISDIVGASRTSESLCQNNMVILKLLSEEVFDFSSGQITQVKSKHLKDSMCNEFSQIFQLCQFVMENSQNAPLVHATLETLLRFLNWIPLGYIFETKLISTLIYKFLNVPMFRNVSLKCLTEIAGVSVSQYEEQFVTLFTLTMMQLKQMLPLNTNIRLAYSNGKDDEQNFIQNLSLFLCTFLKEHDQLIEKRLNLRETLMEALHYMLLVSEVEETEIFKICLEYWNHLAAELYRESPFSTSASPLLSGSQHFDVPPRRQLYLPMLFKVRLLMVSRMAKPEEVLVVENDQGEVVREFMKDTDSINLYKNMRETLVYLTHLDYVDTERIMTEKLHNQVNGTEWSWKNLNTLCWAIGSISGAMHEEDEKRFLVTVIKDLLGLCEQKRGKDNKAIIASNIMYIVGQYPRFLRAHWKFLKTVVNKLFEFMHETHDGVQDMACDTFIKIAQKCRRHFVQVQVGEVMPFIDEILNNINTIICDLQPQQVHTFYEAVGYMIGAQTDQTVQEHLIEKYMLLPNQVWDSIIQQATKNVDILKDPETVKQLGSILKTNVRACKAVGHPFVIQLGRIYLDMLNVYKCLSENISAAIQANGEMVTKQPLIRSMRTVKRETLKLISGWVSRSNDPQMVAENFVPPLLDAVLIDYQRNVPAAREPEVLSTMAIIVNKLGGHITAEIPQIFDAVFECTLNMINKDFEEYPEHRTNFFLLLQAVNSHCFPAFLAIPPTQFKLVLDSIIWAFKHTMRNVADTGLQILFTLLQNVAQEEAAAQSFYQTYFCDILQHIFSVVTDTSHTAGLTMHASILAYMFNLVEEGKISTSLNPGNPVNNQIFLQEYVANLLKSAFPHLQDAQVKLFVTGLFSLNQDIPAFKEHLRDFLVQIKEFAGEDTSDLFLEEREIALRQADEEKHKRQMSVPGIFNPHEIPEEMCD

Kd: 45 µM
Binder: LLFALKVLNM [NES peptide (173–182 aa of TIRR)]
